Assay results as given in patent US20240239864A1.

Target: HLA-A2 (HLA-A*02:01) on cells (T2 cells; K562A2 cells) (human)
Test: T2 peptide-binding assay: T2 cells with peptide at 100 µg/mL overnight, surface HLA-A2 by flow cytometry (T2 only: 3.34E+05)

## HPV-16 E7 p11-19 peptide (from UniProt P03129 11-19)
  Mean Fluorescence Intensity (surface HLA-A2): 492000
